Experimental data published in US6995240.

Molecular target: HLA-DR on rheumatoid synovial fluid mononuclear cells (human)
Test: cell-based or functional assay

## anti-HLA-DR monoclonal antibody L243 (ATCC)
  inhibition of rheumatoid synovial fluid T cell proliferation to p78: 66 to 84%
